Columns and labels:
[1] = target: N571 Q55 HTT (N-terminal huntingtin fragment 1-571 with 55 glutamines); assay: ELISA protein-protein interaction assay (2B7 capture, anti-FLAG detection); conditions: lysates of HEK293T cells co-overexpressing N571 Q55 HTT and FLAG-tagged IKBKB construct; parent: est. 100; read off a plot
[2] = target: inhibitor of nuclear factor kappa B kinase subunit beta (IKBKB), FLAG-tagged (UniProt O14920); assay: as above; conditions: lysates of HEK293T cells co-overexpressing N571 Q55 HTT WT or S13A/S16A and FLAG-tagged IKBKB; parent: est. 100; read off a plot

percent of parent [1] [%] | Substance | percent of parent [2] [%]
190 | inhibitor of nuclear factor kappa B kinase subunit beta (IKBKB), FLAG-tagged (from UniProt O14920) S177E; S181E | 
17 | inhibitor of nuclear factor kappa B kinase subunit beta (IKBKB), FLAG-tagged (from UniProt O14920) K44A | 
190 | inhibitor of nuclear factor kappa B kinase subunit beta (IKBKB), FLAG-tagged (from UniProt O14920) W739A; W741A | 
 | N571 Q55 HTT (N-terminal huntingtin fragment 1-571 with 55 glutamines) S13A; S16A | 100
